Target: the molecule itself
Assay: SEC; purified hSIDT1-GFP on Superose 6 Increase 10/300 GL at 0.5 ml/min, intrinsic tryptophan fluorescence; column in 0.15 mM LMNG, 25 mM Tris-HCl pH 7.5, 200 mM NaCl; molecular weight read from a standard plot

B1: full-length human systemic RNAi defective transmembrane family member 1 (hSIDT1), C-terminal GFP-Strep-tag-II fusion (natural protein, UniProt Q9NXL6 20-827, looked up)
chain: ASPGHPAKSPRQPPAPRRDPFDAARGADFDHVYSGVVNLSTENIYSFNYTSQPDQVTAVRVYVNSSSENLNYPVLVVVRQQKEVLSWQVPLLFQGLYQRSYNYQEVSRTLCPSEATNETGPLQQLIFVDVASMAPLGAQYKLLVTKLKHFQLRTNVAFHFTASPSQPQYFLYKFPKDVDSVIIKVVSEMAYPCSVVSVQNIMCPVYDLDHNVEFNGVYQSMTKKAAITLQKKDFPGEQFFVVFVIKPEDYACGGSFFIQEKENQTWNLQRKKNLEVTIVPSIKESVYVKSSLFSVFIFLSFYLGCLLVGFVHYLRFQRKSIDGSFGSNDGSGNMVASHPIAASTPEGSNYGTIDESSSSPGRQMSSSDGGPPGQSDTDSSVEESDFDTMPDIESDKNIIRTKMFLYLSDLSRKDRRIVSKKYKIYFWNIITIAVFYALPVIQLVITYQTVVNVTGNQDICYYNFLCAHPLGVLSAFNNILSNLGHVLLGFLFLLIVLRRDILHRRALEAKDIFAVEYGIPKHFGLFYAMGIALMMEGVLSACYHVCPNYSNFQFDTSFMYMIAGLCMLKLYQTRHPDINASAYSAYASFAVVIMVTVLGVVFGKNDVWFWVIFSAIHVLASLALSTQIYYMGRFKIDLGIFRRAAMVFYTDCIQQCSRPLYMDRMVLLVVGNLVNWSFALFGLIYRPRDFASYMLGIFICNLLLYLAFYIIMKLRSSEKVLPVPLFCIVATAVMWAAALYFFFQNLSSWEGTPAESREKNRECILLDFFDDHDIWHFLSATALFFSFLVLLTLDDDLDVVRRDQIPVF
notes: human systemic RNAi defective transmembrane family member 1 (hSIDT1), full length, codon-optimized gene synthesized by GenScript, cloned into pEG BacMam; Made in cells that lack N-acetylglucosaminyltransferase I, so the protein lacks complex N-glycosylation (predicted sites N57, N67, N83, N136, N282); No cleavage of GFP-Strep-tag-II is described; Not modelled in the structure: the first 40 …
stoichiometry N: 2

Source: publication PMC11208740, “Structure of the human systemic RNAi defective transmembrane protein 1 (hSIDT1) reveals the conformational flexibility of its lipid binding domain” (Life Science Alliance, 2024)
